From article PMC10259393, “The structural basis of the multi-step allosteric activation of Aurora B kinase” (eLife, 2023) come the findings set out here.

Experiment [1] concerns the target IN-box (C-terminal part of INCENP) IN-box, 790-856. As to the kind of experiment: mass photometry at 10 nM complex. To be noted: reference: [Aurora B/IN-box]all-P, as purified; sites T248,S849,S850.
In experiment [2] the target is T1, Aurora B (59-361 aa) from X. laevis, dephosphorylated, of the [Aurora B/IN-box]^IN-ΔC construct (X. laevis, UniProt Q6DE08 59-361).
T1 construct: Aurora B kinase, Xenopus laevis, residues 59-361; Thr248 not phosphorylated; also called Aurora B of [Aurora B/IN-box]^IN-P; not shown: 6xHis, N-terminal, cleaved; GB1 domain of streptococcal protein G, N-terminal, cleaved
As to the kind of experiment: co-purification; purified complex after ligation with the synthetic peptide: Superdex S200 16/60, then Ni column by the 6xHis of the ligated IN-box, eluted with imidazole. To be noted: both partners purified.

For experiment [3], the target named is T2, Aurora B (59-361 aa) from X. laevis, phosphorylated at Thr248, of the [Aurora B/IN-box]^IN-ΔC construct (X. laevis, UniProt Q6DE08 59-361, phosphothreonine at 248).
T2 construct: Aurora B kinase, Xenopus laevis, residues 59-361; also called Aurora B of [Aurora B/IN-box]^loop-P; not shown: 6xHis, N-terminal, cleaved; GB1 domain of streptococcal protein G, N-terminal, cleaved
The experiment is described as above. The note with it: both partners purified.

Non-standard residues stand in square brackets, D forms with d. pS = N[C@@H](COP(=O)(O)O)C(=O)O

“Aurora B 60-361 [Aurora B/IN-box]no-P, λ-phosphatase treated”: the “other: complex molecular weight” value in experiment [1] is “same; reference ~44”.

B1: Semisynthetic IN-box (790-858, Phe845Cys) phosphorylated at Ser849 and Ser850 with C-terminal 6xHis, as in [Aurora B/IN-box]^IN-P (domain or fragment, X. laevis)
chain: DESQPRKPIPAWASGNLLTQAIRQQYYKPIDVDRMYGTIDSPKLEELFNKSKPRYCKRT[pS][pS]AVWHSPPL-{H2N-H2N-H2N-H2N-H2N-H2N}
notes: INCENP, Xenopus laevis, IN-box residues 790-844; synthetic peptide, IN-box residues 845-858 of X. laevis INCENP with Cys in place of Phe845 (scar of the ligation), both serines of the TSS motif phosphorylated; also called IN-box of [Aurora B/IN-box]^IN-P; IN-box^Phe845Cys; source: IN-box^ΔC (E. coli, purified, C-terminal thioester) ligated with a synthetic phosphopeptide; purified (Superdex S200, …)
In the case of B1, the binding result in experiment [2] was “binds”.

B2: Semisynthetic IN-box (790-858, Phe845Cys) with unphosphorylated TSS motif and C-terminal 6xHis, as in [Aurora B/IN-box]^loop-P (domain or fragment, X. laevis)
chain: DESQPRKPIPAWASGNLLTQAIRQQYYKPIDVDRMYGTIDSPKLEELFNKSKPRYCKRTSSAVWHSPPL
notes: INCENP, Xenopus laevis, IN-box residues 790-844; synthetic peptide, IN-box residues 845-858 of X. laevis INCENP with Cys in place of Phe845 (scar of the ligation); also called IN-box of [Aurora B/IN-box]^loop-P; IN-box^Phe845Cys; source: IN-box^ΔC (E. coli, purified, C-terminal thioester) ligated with a synthetic peptide; purified (Superdex S200, Ni column); not shown: 6xHis, C-terminal, kept
On to B2, for which the binding result in experiment [3] is on record as “binds”.
